From patent US20220396615A1 (published 2022)
Where a chain is given by its changes, count along the chain named.

B1: 41A10B8 (antibody, V domains shown)
VH: EVKLEESGGGLVQPGGSMKLSCAASGFTFSDAWMDWVRQSPDKGLEWVAEIRSKTYHPATYYTKSVRGRFTISRDDSKSSVYLQMNNLGAEDTGIYYCTRPRYYGGYFDYWGQGTTLTVSS
VL: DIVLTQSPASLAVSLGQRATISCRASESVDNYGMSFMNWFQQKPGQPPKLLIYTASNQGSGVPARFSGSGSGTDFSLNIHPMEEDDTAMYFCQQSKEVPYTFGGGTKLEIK
B2: 49F10H6 (antibody, V domains shown)
VH: QVQLQQPGAELVKPGASVKMSCKASGYTFTNYIIHWIKQTPGQGLEWIGAIYPGNGDTSYSQKFKDKATLTADRSSSTAYMQLSSLTSEDSAVYYCARGDAGYSAWFAYWGQGTLVTVSA
VL: NIVLTQSPASLAVSLGQRATISCSASESVDSYGNNFMHWYQQRPGQPPKLLIYLASKLESGVPARFSGSGSRTEFTLTIDPVEAEDAATYYCQQNNEDPLTFGAGTKLELK
B3: 61G1D8 (rat) (antibody, V domains shown)
VH: EVQLLESGGGLVQPGRSMKLSCAASGFTFSSFPMAWVRQTPSKALEWVATISPSGGTSYSRDSVKGRFTISRDNANSTLCLHMDSLKSEDTATYYCLRERIYNTYFDYWGQGVMVTVSS
VL: DIRMTHSPASLSASLGETVSIECLPSEDISSDLAWYQQKPGKSPQLLIYNANTLPNGVPSRFSGSRSGAQYFLKINSLQSEDVATYFCQQYDSYPYTFGTGTKLELK
B4: 29D6B5 (antibody, V domains shown)
VH: QVQLQQSGAELAEPGASVKMSCKASGYNFNNYWMHWVKQGPGQGLEWIGYIDPRTASIYYNQKFKDKATLTADKSSSTAYMQLSSLTSEDSAVYYCARILYGKYDVWGAGTTVIVSS
VL: DVVLTQTPLSLPVSLGNQASISCRSSQSLVDSNGNTYLHWYLQKPGQSPKVLIHKVSNRFSGVPDRFSGSGSGTDFTLKISRVEAEDLGVYFCSQSTHVPPTFGGGTKLEIK
B5: 23A9H3 (antibody, V domains shown)
VH: QVQLQQSGAELAKPGASVKMSCKTSGYTFTNYWMHWVKQRPGQGLEWIGYVIPSTGYTDYNQSFKDKATLTADKSSNTAYMQVNSLTSEDSAVYYCASLLPGFAYWGQGTLVTVSA
VL: B4 VL with L4M, N17D, V51L, H54Y
B6: 53A2F9 (rat) (antibody, V domains shown)
VH: QVQLKESGPGLVQPSQTLSLTCTVSGFSLTSHTVSWIRQPPGRGLEWMGKMWSNGDTDYDSAIRSRLSITRDTSKSQVFLKINSLQTEDTAMYFCARYYFSSYGGGYFDYWGQGVMVTVSS
VL: DTVLTQSPALAVSLGQRVTISCRASKSVSTYMHWYQQKSGQQPKLLIYSASNLESGVPSRFSGSGSGTDFTLTIDPVEADDIANYYCQQSDELPDTFGAGTKLELK

molecular target: T1, Tag-free human IL6 recombinant protein (GenScript, Cat. No. Z03034) (human, UniProt P05231 30-212); experiment: ELISA
T1 sequence (P05231 30-212, one chain of several): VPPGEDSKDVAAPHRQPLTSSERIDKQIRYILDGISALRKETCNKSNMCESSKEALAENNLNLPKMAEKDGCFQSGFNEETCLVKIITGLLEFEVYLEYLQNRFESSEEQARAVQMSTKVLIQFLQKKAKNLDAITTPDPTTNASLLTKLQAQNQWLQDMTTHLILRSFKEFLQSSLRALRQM

EC50	Binder
0.018 mg/L	B1
0.0153 mg/L	B2
0.0196 mg/L	B3
0.0231 mg/L	B4
0.0163 mg/L	B5

molecular target: T1, Tag-free human IL6 recombinant protein …; experiment: SPR (Biacore)

Kd	Binder
0.0225 pM	B6
84.7 pM	B1
265 pM	B2
230 pM	B3
1950 pM	B4
8770 pM	B5
